Data: PMC3400628 (PLoS ONE, 2012)

Biological target: T1, Flag-NOD2 (human, UniProt Q9HC29 1-1040)
T1 construct: NOD2, human; The deletion constructs count up to aa 1040, the length of whole NOD2; also called NOD2 WT; Flag-NOD2 WT; source: HEK293T, transfected, in lysate; not shown: Flag, N-terminal, kept
Settings: partners not purified

B1: myc-TRIM27 WT (natural protein, human, UniProt P14373 1-513, looked up)
chain: MASGSVAECLQQETTCPVCLQYFAEPMMLDCGHNICCACLARCWGTAETNVSCPQCRETFPQRHMRPNRHLANVTQLVKQLRTERPSGPGGEMGVCEKHREPLKLYCEEDQMPICVVCDRSREHRGHSVLPLEEAVEGFKEQIQNQLDHLKRVKDLKKRRRAQGEQARAELLSLTQMEREKIVWEFEQLYHSLKEHEYRLLARLEELDLAIYNSINGAITQFSCNISHLSSLIAQLEEKQQQPTRELLQDIGDTLSRAERIRIPEPWITPPDLQEKIHIFAQKCLFLTESLKQFTEKMQSDMEKIQELREAQLYSVDVTLDPDTAYPSLILSDNLRQVRYSYLQQDLPDNPERFNLFPCVLGSPCFIAGRHYWEVEVGDKAKWTIGVCEDSVCRKGGVTSAPQNGFWAVSLWYGKEYWALTSPMTALPLRTPLQRVGIFLDYDAGEVSFYNVTERCHTFTFSHATFCGPVRPYFSLSYSGGKSAAPLIICPMSGIDGFSGHVGNHGHSMETSP
notes: TRIM27, human, full length (aa 1-513 by the deletion constructs); cDNA from ImaGenes; also called RFP; source: HEK293T, transfected, in lysate; not shown: 3xmyc, N-terminal, kept
fold change of TRIM27 co-precipitated with NOD2 at 3 h after 10 µM MDP against untreated controls: > 2 fold
